Assay results as given in the nanobody polyreactivity screen of Harvey et al. (2022).

Test: yeast display, Sf9 membrane polyspecificity reagent, FACS + sequencing; frameworks hold sequencing errors
In short: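 Nanobodies came from a synthetic yeast display library in Saccharomyces cerevisiae BJ5465, induced with galactose for 36–48 hours and stained for 1 hour at 4 °C with 10% biotinylated, detergent-solubilized Sf9 membrane reagent. Cells were enriched on streptavidin microbeads and then FACS-sorted, with low and high (top ~1%) gates set on anti-HA fluorescence for expression and streptavidin fluorescence for reagent binding. Each polyreactivity label reflects the gate a clone came from. Genes were amplified by colony PCR, sequenced by MiSeq 2 × 250 and filtered by CDR length.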

| Sequence | polyreactivity (PSR sort gate) |
| --- | --- |
| QDQLVESGVGLDQAGVSLRLSCAASGRTFKGNAMGWYSQATGKESELVAVITGSGGSTYYADSVKGRFTISRDNAKNTVYLQMTSLKPEDTAVYYCNKTLQRRSWYDYWGQGTQVTVSS | low polyreactivity |
| QVQLVESGGGLVQAGGSLRLSCAASGFTFRYYAMGWSRQAPGKERELLAAITGRGGSTYYADSVKGRFTISRDNAKNTVYFQMNSLNPEDTAVSFCAARFTRVYAQVRNDYWGQGTQVTVSS | high polyreactivity |
| QLQLVESGGGLVQAGGSLRLSCAASGRTFSIYAMGWSRQATGKERELVAAIRWSGGSTYYADSVKGRFTISRDNAKNSVYLQMNSLKPEDTAVYYCATRSRGLKFDYWGQGTLVTVSS | high polyreactivity |
| QFQLVESVRGLFQAGGSLRLSCAASGSIFHPYGMGWYREDPVKERELVAAISSSGGDTYYADSVKGRFTISRDNAKNTVYLQMNSLKPEDTAVYYCATDHLDSYSVPGIGKHDYWGQGTQVTVSS | low polyreactivity |
| QVQLVESGRGLVQAGGSLRLSCDASGFIFPWYAMGWYRQAPGKERELVAAITSGGSTTYADSVKGRFTISRDNAKNTVYLQMNSLKPEDTAVYYCAAAYPWGDYGVSDYDYWGQGTQVTVSS | high polyreactivity |
| QVQLVESGGGLVQAGGSLRLSCAASGRTFSYYAMGWYRQAPGKERELVAAISWSGGSTYYADSVKGRFTISRDNAKNTVYLQMNSLKPEDTAVYYCNAPGYVWKGYDYWGQGTQVTVSS | high polyreactivity |
| QVQLVESGGGLVQAGGSLRLSCAASGSIFGTYAMGWYRQAPGKEREMVARITSGGSTNYADSVKGRFTISRDNAKNTVFLQMNSLKPEDTAVYYCAARQYHWYLPSYWYRYDYWGQGTLVTVSS | high polyreactivity |
| QVQLVESGGGLVQAGGSLRLSCAASGSIFVLSAMGWYRQAPGKEREFFAAITWSGDSTYYADSVKGRFTISRDNAKNTVYLQMNSLKPEDTAVYYCAAEGNTWPADFLSYYFEFDEYWGQGTQVTVSS | low polyreactivity |
| QVQLVESGGGLVQAGGSLRLSCAASGRIFGQNAMGWYRQSPGKERELVAVITSRGTRTYYADSVKGRFTISRDNAKNTVYLQMNSLNQEDTAVYYCAADVYSDNYKTWPYDYWGQGTQVTVSS | low polyreactivity |
| QVQLVESGGGLDQAGGSLRLSCAASGLIFYTYAMGWYRQAPGKERELVADINRSDGSTYYADSVKGRFTISRDNAKNTVYLQMNSLKPEDTAVYYCAVVGTYYSRFGGRYYYWGQGTQVTVSS | low polyreactivity |
| QVQLVESGGGLVQAGGSLRLSCAASGSIFYYNAMGWYRQAPGKERELVAAISSSGGSTYYADSVKGRFTISRDNAKNTVYLQMNSLKPEDTAVYYCAAKLRHWAHHTKYDYWGQGTQVSVSS | low polyreactivity |
| QVQLVESGGGIVQAGGSLRLSCAASGSIFSYNAMVWSRQAPGKQREFVAAIDGSDGSTYYADSVKGRFTISRDNAKNTVYLQMYSLKPEDTAVYSCAATDYDTYRSSWYDYWGQGTQVTVSS | low polyreactivity |
| QVQLGHSGGGLVQAGGSLRLTCAPSGSIFGYKAMGWYRQAPGKERELVAAISSTGGSTYYADSVKGRFTISRDNAKNTVYLQMNSLKPEDTAVYYCAKQVADRYVYWGQGTQVTVSS | low polyreactivity |
| QVQLEESGGGLVQAGGSLRLSCAASGSTIRYNAMGWSRQAPGKERELVAGISVRGGSTYYADSVKGRFTISRDNAKNTVYLQMNSLKPEDTAVYYCATRSPYSYPNLYYWGQGTQVTVSS | high polyreactivity |
| QVQLVESGGGLDQAGGSLRLSCAASGSILVSNDMGWYRQAPGKERELVAAISWSGGSTYYADSVKGRFTISRDNAKNTVYLQMNSLKPEDTAVYYCAAGFGFLFARQELDFDYWGQGTQVTVSS | low polyreactivity |
| QVQLVESVGGLVQAGGSLRLSSASSGRIFWDYAIGCYRQAPGKERELVASISTDGSTYYADSVKGRFTISRDNAKNTVYLQMNSLKPEDTEVYFCAVRGLYRYIRWGYPSYYYWGLGTQVTVSS | low polyreactivity |
| QVQLVESGGGLVQAGGSLRLSCAASGSTFQSYTMGWYRQAPGKERELVAGISRSGGSTYYADSVKGRFTISRDNAKNTVYLQMNSLKPEDTAVYYCAAAFYGRWGGFDYWGQGTQVTVSS | high polyreactivity |
| QVQLVESGGGLVQAGGSLRLSCAASGRTFDGYAMGWYRPAPGKERELVAAITYTGGSTYYADSVKGRFTISRDNAKNTVYLQMNSLKPEDTAVYYCNALYAVYSDFADDYWGQGTQVTVSS | low polyreactivity |
| QVQLVESGGGLVQAGGSLLLSCAASGRIFDRNAIGWYRQAPGKERELVAAINSVGTTYYADSVKGRFTISRDNAKNTVYLQMNSLKPEDTAVYYCAARSAYRRGYWGQGTQVTLSS | high polyreactivity |
| QVQLVESGGGLVQAGGSLRLSCAASGSIFLIYARGSYRQAPGKERELVAAISGRVGSTYYADSVKGRFTISRDNAINTVYLQMNSLKPEDTAVYYCAARNSYGNWRYYYWGQGTQVTVSS | high polyreactivity |
| QVQLVESGGGLVQAGGSLRLSCAASGSIFGSNAMGWYRQAPGKERELVAAITESGGDTYYADSVKGRFTISRDNAKNTVYLQMNSLKPEDTAVYYCAARYFGVIVDVSLFREYGSWGQGTQVTVSS | low polyreactivity |
| QVQLVESGGGLVQAGGSLRLSCAASGRIFRYYAMGWYRQAPGKERELVATITASSGSTYYADSVKGRFTISRDNAKNTVYLQMNSLKPEDTAVYYCAAGFVYRPGSFIRFDYWGQGTQVTVSS | high polyreactivity |

| Sequence | polyreactivity (PSR sort gate) |
| --- | --- |
| QVQLVESGGGLVQAGGSLRLSCAASGRTFSYNAMGWYRQAPGKERELVAAISSGGSTYYADSVKGRFTISRDNAKNTVYLQMNSLKPEDTAVYYCAADSPSVWGYRYDYDYWGQGTQVTVSS | low polyreactivity |
| QVQLVESGGGLVQAGGSLRLSCAASGSTFYTNAMGWYRQAPGKERELVAVITSSGVRTYYADSVKGRFTISRDNAKKTVYFQMNSLKPEDTAVYYCAAEARVGDHFQILDYWGQGTQVTVSS | high polyreactivity |
| QGQLVESGGGLVQAGGSLRLSCAASGTTFTKYAMGWYRPAPGKERELVATISQSSGRTYYADSVKRRFTISRDNAKNTVYLQMNTLKPEDTAVYYCAARYGYAVYYYGTPVRRYYYWGQGTQVTVSS | high polyreactivity |
| QVQLVESGGGLVQAGGSLRLSCAASGRNIWGYTMGWYRQAPGKERDLVAAIRFTSGSTYYADSVKGRFTISRDNAKNSVYLQMNSLKPEDTAVYYCATPYVQTGSGYTGVYWGQGTQVTVSS | high polyreactivity |
| QVQLVESGGGLVQAGGSLRLSCAASGRIFSYYDIGWYRQAPGKERELVAAITGGGRTIYADSVKGRFTISRDNAKNTVYLQMNILKTEDTAVYYCNARARSRKFYYWGQGTQVTVSS | high polyreactivity |
| QVQLVESGGGLVQAGGTLRLSCAASGSTFPKYGMGWYRQAPGKEREFVARINWNGGGTYYADSVKGRFTISRDNAKNTVYLHMNSLKPEDTAVYYCNARKRGARFILGYDYWGQGTQVTVSS | low polyreactivity |
| QVQLVESGGGLVQAGGSLRLSCAASGFTFSYYAMGWYRQAPGKERELVAAITSGGSTYYADYVKGRFTISRDNAKNTVYLQMNRLKPEDTAVYYCNADGWYYPTDDYWGQGTQVTVSS | low polyreactivity |
| QVQLVESGGGLVQAGGSLRLSSAASGSISPQNVMGWYRQEPGKERELVAAITGGGSTNYADSVKGRFTISRDNAKNTVSLQMNSLKPEDTAVYYCNDDYFQDRLDYWGQGTQVTVSS | low polyreactivity |
| QVQLVESGGGLVQAGGSLRLSCAASGSTFYIHAMGWNRQAPGKERELVAAISATGTRTYYADSVKGRFTISRDNAKNTFYLQMNSLKPEDTAVYYWNAVYWYWWVITYVGPGLGYWGQVTQVTVSS | high polyreactivity |
| QVQLVESGGGLVQAGGSLRLSCAASGFTFDGYAMGWYRQAPGKERELVAAIRRSGASTYYADSVKGRFTISRDNAKNTVYLHMNSLKPEDTAVYYCNATRNYEPRYSSFTLRGYYWGQGTQVTVSS | low polyreactivity |
| QVQLVESGGGLVQAGGSLRLSCAASGRIFQPNVMGWYRQAPGIERELVAAIRSGSSTYYADSVKGRFTISRDNAKNTVYLQMNSLKPEDTAVDYCATRYRKQYKPYEYWGQGTQVTVSA | high polyreactivity |
| QVQLVESGGGLVQAGGSLRLSCAASGSIFTRYAMGWYRQAPGKERELVAAISTSGGSTYYADSVKGRFTISRDNAKNTVYLQMNSLKPEDTAVYYCAADDQRRSGYYSWGQGTQVTVSS | high polyreactivity |
| QVQLVESGGGLVQAGGSLRLSCAASGLTFKKYTIGWYRQAPGKETQLVAVITSGGSTYYADSVKGRFTISRDNAKNTVYLQMNSVKPEDTAVYYGAVKYPELRSWGNYYWGQGTQVTVSS | high polyreactivity |
| QVQLVESGGGLVEAVGSLRLSCAASGINFQGNAMGWSRQAPGKERELVASITAGGDTTYYADSVKGRFTISRDNAKNTVYFQMNSLKPEDTAVYYCATRLYGYWPYGFDYWGQGTQVTVSS | low polyreactivity |
| QVQLVESGGGLVQAGGSLRLSCAASGITFQKNAMGWYRKAPGKERELVAGITWRGSTYYADSVKGRFTISRDNAKNTVYLQMNSLKPEDTAVYYCAADPFYWYRSFRGEYWGKGTQVTVSS | low polyreactivity |
| QVQLVESGGGLVQAGGSLRLTCAASGRIFNYYAMGWYRQAPGKEREFVAAITRSGGRTYYADSVKGRFTISRDNAKNTVYLQMNSLKPEDTAVYYCAAPYGTYAYDYWGQGTQVTVSS | high polyreactivity |
| QVQLVESAGGLVQAGGSLRLSCAASGSNFKYYAMGWYRQAPGKERELVAAINGSGGSTYYADSVKGRFTISRDNAKNTVYLQMNSLKPEDTAVYYCARASDYNKVSKSQRMDYWGQGTQVTVSS | high polyreactivity |
| QVQLVESGGGLVQAGGSLRLSCAASGSIFPYNAMGWYRQAPGKERELVAAISISGGSTYYADSVKGRFSISRDNAKNTVYLQMNSLKPEDTAVYYCAARQSLSSAFDYWGQGTQVTVSS | low polyreactivity |
| QVQLVESGGGLVQAGGSLRLSCAASGSIIVYYAMGWYRQAPGKQRELVAANDQSGGSTYYADSVKGRFTISRDNAKNTVYLQMNSLKPEDTAVYYCASVHSLYWLGDDTYGYDYWGQGTQVTVSS | low polyreactivity |
| QVQLVESGGGLVQAGGSLRLSCAASGRIFVVNAMGWYRQAPGKERELVAAITRRGGSTYADSVKGRFTISRDNAKNTVYLQMNSLKPEDTAVYYCNAESYYGIFRYKYDYWGQGTQVTVSS | high polyreactivity |
| QDQLVESGGGLVQAGASRRLRCAASGSIFGRNTMGWYRQAPGKESELVAAISSGGRTYYADSVKGRFTISRDNAKYTVFLQMNSLKPEDTAVYYCAAALRRRRADFDYWGQGTQVTVSS | high polyreactivity |
